Results: article PMC6697728

Biological target: EphB2-GFP (UniProt P29323)
Sequence of UniProt P29323 (P29323 19-1055): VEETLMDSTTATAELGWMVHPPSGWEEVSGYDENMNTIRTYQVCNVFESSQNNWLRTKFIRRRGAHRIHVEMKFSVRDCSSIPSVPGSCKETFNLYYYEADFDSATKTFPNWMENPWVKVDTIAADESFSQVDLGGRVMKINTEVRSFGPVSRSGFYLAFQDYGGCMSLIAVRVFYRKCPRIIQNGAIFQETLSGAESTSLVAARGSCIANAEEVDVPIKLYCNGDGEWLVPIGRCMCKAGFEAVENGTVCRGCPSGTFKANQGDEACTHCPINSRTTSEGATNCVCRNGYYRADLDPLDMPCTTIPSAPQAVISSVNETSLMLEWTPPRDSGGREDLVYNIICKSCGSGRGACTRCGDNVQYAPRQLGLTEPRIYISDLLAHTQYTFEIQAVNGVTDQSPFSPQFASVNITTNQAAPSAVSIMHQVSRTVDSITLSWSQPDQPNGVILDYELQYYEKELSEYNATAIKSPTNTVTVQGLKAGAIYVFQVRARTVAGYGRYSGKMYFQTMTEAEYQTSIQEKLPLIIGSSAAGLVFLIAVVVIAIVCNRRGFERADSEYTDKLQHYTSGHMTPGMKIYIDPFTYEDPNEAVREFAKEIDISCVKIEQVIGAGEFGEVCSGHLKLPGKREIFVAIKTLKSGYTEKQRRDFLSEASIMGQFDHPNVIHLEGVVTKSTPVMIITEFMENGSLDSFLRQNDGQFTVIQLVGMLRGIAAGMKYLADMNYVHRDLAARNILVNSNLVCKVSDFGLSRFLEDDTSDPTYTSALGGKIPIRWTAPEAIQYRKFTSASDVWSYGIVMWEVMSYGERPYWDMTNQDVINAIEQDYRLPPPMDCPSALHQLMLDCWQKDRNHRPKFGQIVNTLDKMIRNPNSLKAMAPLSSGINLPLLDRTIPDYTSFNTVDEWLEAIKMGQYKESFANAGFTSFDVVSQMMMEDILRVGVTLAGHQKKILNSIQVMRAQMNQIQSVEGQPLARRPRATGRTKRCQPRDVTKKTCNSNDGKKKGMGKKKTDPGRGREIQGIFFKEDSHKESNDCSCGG

With “ephrin-B2-Fc (from UniProt P52799 28-229) (Fc fusion)” the decrease in HeLa cell area (collapse) of Control shRNA EphB2-OE cells after 15 min with 1 ug/mL pre-clustered eB2 against Fc was 50%.
